{
  "source": "patent US20050170334A1",
  "target": "M2 peptide (extracellular 23-amino-acid M2 peptide) (influenza A virus)",
  "test": "ELISA, peptide coated, antibody 10 µg/ml",
  "data": [
    {"substance": "mouse anti-M2 antibody 14C2", "values": [
      {"measurement": "ELISA (OD450)", "value": 1.97, "unit": "OD450"}
    ]}
  ]
}
